“Also recorded” adds a separate entry of the source.

One assay has as its system mammary gland. Briefly: Subcutaneous injection into ovariectomized, hormone-treated mice; carmine-stained mammary gland branching. In kind it is in vivo. The note with it: 14 days, ovariectomized animals given E, P, Prl. As to the method: The influence of ROBO1 ECD fragments in vitro on primary alveolar progenitor cell growth and in vivo on branching morphogenesis was tested. FACS-purified murine and bovine alveolar progenitor cells (AVPs) were plated as single cells in Matrigel and grown for 10 days in the absence and presence of ROBO1-ECDs fragments (FIGS. 9A, B). […] ROBO1-Ig5 fragments were also tested in vivo by subcutaneously injecting them (7.5 mammary gland/kg/day) into ovariectomized animals that were orally administered hormones in Nutella: estrogen (E, 1 μg/day), progesterone (P, 1 mg/day mammary gland/day) and prolactin (Prl, 0.2 mg/day mammary gland/day) (FIG. 9C). The mammary glands were harvested after 14 days of ROBO1-Ig5 fragment treatment, carmine stained and evaluated. […] Other aspects can involve ROBO1-ECD constructs that are tagged with the murine-Fc sequence. This tag is recognized by an endogenous receptor that facilitates transport into tissues 4. Mouse mammary glands were surgically dissected, spread onto a glass slide, and fixed in Carnoy's solution (25% glacial acetic acid and 75% ethanol). […] C57BL mice (8-10 weeks old) were bilaterally ovariectomized and allowed to recover for 1 week^47. During the recovery, mice were trained with oral administration Nuttella. Mice were fed Nutella mixed with 17beta-estradiol (E, 1 μg, Sigma)+progesterone (P, 1 mg, Sigma) for three weeks (daily). For ROBO1-Ig5 ECD, prolactin (Prl, 200 μg, NHPP) was given by Nutella oral administration over one week (daily), starting after 1 week E+P. For ROBO2 mAb, prolactin (Prl, 50 μg) was injected by intraperitoneal injection over 2.5 weeks (daily), starting after 1 week E+P. ROBO1-Ig5 ECD was injected subcutaneously (7.5 mg/kg ROBO1-Ig5 ECD or PBS; daily) over the 2 weeks period, starting after 1 week of E+P. ROBO2 mAbs or IgG isotype control mAbs ([…]) were injected subcutaneously twice/week over 17 days, starting after 1 week of E+P^48.

In a further assay the test system is Notch signaling. The assay can be described thus: RT-qPCR of Notch effector expression (Hey1, Hes1) in HC11 cells. In kind it is cell-based, mouse. The note with it: HC11 cells treated with ROBO1-ECD fragments. The method, then: To examine the effects of ROBO1-ECD fragments on Notch signaling, HC11 cells were treated with ROBO1-ECD fragments and Notch effector expression assessed. […] In addition, HC11 cells were treated with ROBO-Ig5 during differentiation. These cells were then fractionated and a Western blot performed to detect HES1 and NOTCH4-ICD (FIG. 8B).
Total RNA was harvested from cells lysed in TRIzol reagent (Invitrogen) and phase separated according to manufacturer's protocol with an additional overnight RNA precipitation stem in ethanol (Macias et al., 2011). The RNA was further purified with TURBO DNase (Ambion) treatment. Total RNA quality was analyzed by agarose gel electrophoresis and quantified with an ND-1000 spectrophotometer (NanoDrop). cDNA libraries were prepared from 1 μg of total RNA using iScript cDNA synthesis kit (BioRad). Quantitative RT-PCR was performed in triplicates using light Cycler 480 SYBR Green I Master (Roche) and quantified using BioRad CFX'Connect Real-Time System and CFX Manager software (BioRad). Results were normalized to GAPDH.
Background: In qPCR the cycle at which signal appears reflects the starting amount.

Another assay concerns HC11 cells. The assay can be described thus: Western blot analysis of WAP and PLIN2 in HC11 cells. In kind it is cell-based, mouse. The note with it: ECD titration. The method, then: To determine whether the promotion of dome formation also results in higher milk production, HC11 cells were differentiated in the presence or absence of ROBO1-ECD fragments that were added to cells simultaneously with DIP media. Cells were harvested and the expression of WAP and Lalba assessed by RT-qPCR. […] WAP expression levels were not increased in cells treated with DCC-Ig4 (FIG. 7K). Next, Western blot analysis of WAP and PLIN2 was performed on cells treated with ROBO1-Ig5 and ROBO1-Ecto.
Protein lysates were prepared by directly lysing adherent cells in 1× sample buffer supplemented with 5% beta-mercaptoethanol and boiled for 5 minutes. Protein lysate was resolved by SDS-PAGE and transferred to a PVDF for 90 minutes at 400 mA or overnight at 30 mA. Primary antibodies were used at the concentration indicated in Table 1 and incubated overnight at 4° C. HRP conjugated secondary antibodies (Jackson Labs) were used at 1:3000 and incubated for 45 minutes at room temp. All proteins were detected using Clarity ECL (BioRad) using a BioRad Chemi-Doc MP Imager and quantified using ImageLab software as previously described a.
For orientation: Immunoblotting shows a protein as a band on a membrane.

Assay [1] concerns bovine alveolar progenitor cells (AVPs). Briefly: Organoid growth of FACS-purified bovine alveolar progenitor cells in Matrigel. The assay is classed as cell-based. The note with it: single cells in Matrigel, 10 days, vs untreated controls. As to the method:
The influence of ROBO1 ECD fragments in vitro on primary alveolar progenitor cell growth and in vivo on branching morphogenesis was tested. FACS-purified murine and bovine alveolar progenitor cells (AVPs) were plated as single cells in Matrigel and grown for 10 days in the absence and presence of ROBO1-ECDs fragments (FIGS. 9A, B). […] ROBO1-Ig5 fragments were also tested in vivo by subcutaneously injecting them (7.5 mammary gland/kg/day) into ovariectomized animals that were orally administered hormones in Nutella: estrogen (E, 1 μg/day), progesterone (P, 1 mg/day mammary gland/day) and prolactin (Prl, 0.2 mg/day mammary gland/day) (FIG. 9C). The mammary glands were harvested after 14 days of ROBO1-Ig5 fragment treatment, carmine stained and evaluated. […] Other aspects can involve ROBO1-ECD constructs that are tagged with the murine-Fc sequence. This tag is recognized by an endogenous receptor that facilitates transport into tissues 4.
FACS purified AVPs were cultured in Matrigel (BD Bioscience) at a density of 5000 cell/100 uL and cultured in basal medium; DMEM: F12 phenol-free, 10 mM HEPES, N2 (Gibco), B27 (Gibco) supplemented with 100 ng/mL Neuregulin (R&D), 42.5 ng/mL R-Spondin1 (Peprotech) […]. […]

B1: ROBO1-Ig5: recombinant soluble ROBO1 ECD construct comprising all five Ig domains (protein)
chain: SRLRQEDFPPRIVEHPSDLIVSKGEPATLNCKAEGRPTPTIEWYKGGERVETDKDDPRSHRMLLPSGSLFFLRIVHGRKSRPDEGVYICVARNYLGEAVSHNASLEVAILRDDFRQNPSDVMVAVGEPAVMECQPPRGHPEPTISWKKDGSPLDDKDERITIRGGKLMITYTRKSDAGKYVCVGTNMVGERESEVAELTVLERPSFVKRPSNLAVTVDDSAEFKCEARGDPVPTVRWRKDDGELPKSRYEIRDDHTLKIRKVTAGDMGSYTCVAENMVGKAEASATLTVQEPPHFVVKPRDQVVALGRTVTFQCEATGNPQPAIFWRREGSQNLLFSYQPPQSSSRFSVSQTGDLTVTNVQRSDVGYYICQTLNVAGSIITKAYLEVTDVIADRPPPVIRQGPVNQTVAVDGTLTLSCVATGSPVPTILWRKDGVLVSTQDSRIKQLESGVLQIRYAKLGDTGRYTCTASTPSGEATWSAYIEVQEF
Regarding B1, in the assay on mammary gland, the “mammary gland area (size)” value is reported as “significantly greater area”; the “number of primary (1°) branches” value is on record as “higher number”; the overall branching density entry is “not different from that of controls; also recorded: no increase”; the “secondary (2°) and tertiary (3°) branching” value was “More and Increased”. Moreover, in the assay on mammary gland (listed as ROBO1-Ig-5), the “mammary gland area (size)” value was “Increased” and the “number of primary (1°) branches” value is given as “Increased”. For the same molecule, in the assay on Notch signaling, the Hes1 expression result is “lower expression; also recorded: decreased” and the Hey1 expression result is listed as “lower expression; also recorded: decreased”. In the assay on HC11 cells, the PLIN2 protein expression result is on record as “approximately two-fold; also recorded: increased” and the WAP protein expression result was “approximately two-fold; also recorded: increased”. The “size of bovine organoids” value in assay [1] was “larger bovine organoids; also recorded: increased the size”.

Values taken from US12139531B2, “Compositions and methods useful in promoting milk production” (The Regents of the University of California, priority 2019, dated 2024).
